Measurements as given in patent US20240398942A1, “USE OF ANTI-CD40 ANTIBODY” (CHIA TAI TIANQING PHARMACEUTICAL GROUP CO., LTD., priority 2021, published 2024).
Where two headings read alike, the source gives them in different places. Each block holds one molecule with its values, some of them ahead of it.

How the values were obtained:
[1] = target: Cynomolgus monkey CD40-his; assay: Biacore surface plasmon resonance affinity and binding kinetics; conditions: Table 5, Biacore; for Ka: purified antibodies
Text: (§1) The affinity and binding kinetics of the anti-CD40 antibody in the present application were characterized by a Biacore T200 system (GE Healthcare, Pittsburgh, PA, USA).
(§2) Briefly, a goat anti-human IgG (GE Healthcare, Cat. No. BR100839, human antibody capture kit) was covalently linked to a CM5 chip (GE Healthcare, Cat. No. BR100530, carboxymethylated dextran-coated chip) via the primary amine group using a standard amine coupling kit supplied by Biacore (GE Healthcare, Pittsburgh, PA, USA). Unreacted portions on the biosensor surface were blocked with ethanolamine. Then, the anti-CD40 antibody of the present application and two benchmark antibodies (BM1 (dacetuzumab, Genentech Inc., also referred to CD40-BM1, prepared in-house; the heavy and light chain amino acid sequences are set forth in SEQ ID NOs: 40 and 41, respectively) and BM2 (selicrelumab, Abgenix Inc., also referred to CD40-BM2, prepared in-house; the heavy and light chain amino acid sequences are set forth in SEQ ID NOS: 42 and 43, respectively)) at a concentration of 66.67 nM were directed through the chip at a flow rate of 10 μL/min. Then, serially diluted recombinant human CD40-his (Acro biosystems, Cat. No. CD0-H5228, serially 2-fold diluted from 80 nM in HBS-EP^+ buffer (supplied by Biacore)) or cynomolgus monkey CD40-his protein (Acro biosystems, Cat. No. CD0-C52H6, serially 2-fold diluted from 80 nM in HBS-EP^+ buffer (supplied by Biacore)) was directed through the chip at a flow rate of 30 μL/min. The antigen-antibody binding kinetics was tracked for 2 min and the dissociation kinetics was tracked for 10 min. The association and dissociation curves were fitted to a 1:1 Langmuir binding model using BIAcore evaluation software. KD, Ka, and Kd values were determined.

[2] = target: T1, Human CD40-his (Homo sapiens, UniProt P25942); assay: as above; conditions: Table 5, Biacore; for Ka: purified antibodies
T1 construct: His; purchased Acro biosystems CD0-H5228
T1 sequence (P25942 21-277): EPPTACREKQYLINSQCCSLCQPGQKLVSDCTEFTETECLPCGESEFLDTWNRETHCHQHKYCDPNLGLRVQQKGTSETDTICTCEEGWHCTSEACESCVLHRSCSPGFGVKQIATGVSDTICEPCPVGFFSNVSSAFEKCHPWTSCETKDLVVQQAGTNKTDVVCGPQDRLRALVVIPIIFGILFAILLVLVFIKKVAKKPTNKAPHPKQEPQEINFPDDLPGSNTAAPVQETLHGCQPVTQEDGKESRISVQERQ
Text: as §1, §2

[3] = target: binding of CD40 to CD40L (Homo sapiens, UniProt P25942); assay: Ligand blocking competitive ELISA; conditions: in words, FIG. 5
Sequence of binding of CD40 to CD40L (P25942 21-193): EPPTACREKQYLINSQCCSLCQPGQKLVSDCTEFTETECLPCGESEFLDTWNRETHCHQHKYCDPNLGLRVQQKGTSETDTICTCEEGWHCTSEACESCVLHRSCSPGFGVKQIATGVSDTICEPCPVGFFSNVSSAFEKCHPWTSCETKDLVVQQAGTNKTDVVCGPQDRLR
Procedure: The ability of the anti-CD40 antibody to block the binding of CD40 to CD40L was determined by competitive ELISA. Briefly, a human CD40-Fc protein (amino acid residues 21-193 of SEQ ID NO: 30 linked to the N terminus of amino acid residues 99-330 of SEQ ID NO: 28) dissolved in the immobilization buffer (carbonate/bicarbonate buffer) at a concentration of 2 μg/mL was immobilized on a 96-well plate at 100 μL/well and incubated overnight at 4° C. The next day, the plate was washed once with a washing buffer (PBS+0.05% v/v of Tween-20, PBST) before a PBST containing 5% w/v of skim milk was added. The plate was then incubated at 37° C. for 2 h for blocking. The plate was then washed 4 times with the washing buffer.
The anti-CD40 antibody of the present application or the benchmark was serially 5-fold diluted from 200 nM in a PBST containing 2.5% w/v of skim milk, and the serially diluted anti-CD40 antibody or benchmark was added at 100 μL/well to a plate coated with CD40-Fc protein and incubated at 37° C. for 40 min. […] The absorbance of each well was read on a microplate reader using the dual wavelength mode (TMB detection wavelength: 450 nm, reference wavelength: 630 nm). […] Data were analyzed using Graphpad Prism software, and IC50 values were obtained.

[4] = target: binding of the benchmark (BM2) to human CD40 (Homo sapiens, UniProt P25942); assay: Benchmark blocking competitive ELISA; conditions: in words, FIG. 6
Sequence of binding of the benchmark (BM2) to human CD40 (P25942 21-193): as above
Procedure: The ability of the anti-CD40 antibody of the present application to block the binding of the benchmark to human CD40 was determined by competitive ELISA. Briefly, BM2 antibody was immobilized on a 96-well micro plates at 1 μg/mL in PBS, 100 µL/well, and incubated overnight at 4° C. The next day, the plate was washed once with a washing buffer before a blocking buffer (PBST containing 5% w/v of skim milk) was added. The plate was then incubated at 37° C. for 2 h for blocking. During the blocking of the 96-well plate, the anti-CD40 antibody of the present application or the benchmark was serially 5-fold diluted from 66.7 nM with a biotinylated human CD40-Fc protein (amino acid residues 21-193 of SEQ ID NO: 30 linked to the N terminus of amino acid residues 99-330 of SEQ ID NO: 28, dissolved in PBST containing 2.5% w/v of skim milk at a concentration of 0.23 nM) and then incubated at room temperature for 40 min. After the plate was washed 4 times, the antibody/biotinylated human CD40-Fc mixture was added at 100 μL/well to the plate coated with BM2. The plate was incubated at 37° C. for 40 min and again washed 4 times with the washing buffer. […] The absorbance was read on a microplate reader using the dual wavelength mode (TMB detection wavelength: 450 nm, reference wavelength: 630 nm). […] Data were analyzed using Graphpad Prism software, and IC50 values were obtained.

Kd ([1]; dissociation rate): 0.002371 s⁻¹ | Ka [1]: 2.14e+06 M⁻¹ s⁻¹ | Kd ([1]; read-out: KD): 1.11 nM | Kd ([2]; dissociation rate): 0.00248 s⁻¹ | Ka [2]: 2.25e+06 M⁻¹ s⁻¹ | Kd ([2]; read-out: KD): 1.1 nM
B1: huC1H1-V1: humanized C1H1 anti-CD40 antibody, VH SEQ ID NO: 20 X1=A, VL SEQ ID NO: 24 X1=K X2=F, human IgG2/κ (antibody, V domains shown)
VH: EVQLVESGGGLVKPGGSLRLSCAASGFTFSNYGISWVRQAPGKGLEWVXSISSGGDNTYYPDNVKGRFTISRDNAKNSLYLQMNSLRAEDTAVYYCARAGEKAMDYWGQGTLVTVSS
VL: EIVLTQSPATLSLSPGERATLSCRASQTINNNLHWYQQKPGQAPRLLIXYASQSISGIPARFSGSGSGTDFTLTISSLEPEDFAVYXCQQFSSWPLTFGGGTKVEIK
modifications: not fully specified; human IgG2/kappa constant regions; VH of huC1H1-V1 to huC1H1-V4; VARIANT 49 X can be A or S; VL of huC1H1-V1 to huC1H1-V4; VARIANT 49 X can be K or Y; VARIANT 87 X can be F or Y
Blocking of the binding of CD40 to CD40L [3]: comparable or slightly lower blocking activity relative to BM1 and BM2 | Blocking of the binding of human CD40 to BM2 [4]: able to block the binding of human CD40 to BM2

B2: huC1H1-V2: humanized C1H1 anti-CD40 antibody, VH SEQ ID NO: 20 X1=S, VL SEQ ID NO: 24 X1=K X2=F, human IgG2/κ (antibody, V domains shown)
VH: B1 VH
VL: B1 VL
modifications: not fully specified; variable positions X1=S; VL X1=K X2=F; IgG2/kappa constant; VH of huC1H1-V1 to huC1H1-V4; VARIANT 49 X can be A or S; VL of huC1H1-V1 to huC1H1-V4; VARIANT 49 X can be K or Y; VARIANT 87 X can be F or Y
Kd ([1]; dissociation rate): 0.002735 s⁻¹ | Ka [1]: 2.56e+06 M⁻¹ s⁻¹ | Kd ([1]; read-out: KD): 1.07 nM | Kd ([2]; dissociation rate): 0.002704 s⁻¹ | Ka [2]: 2.31e+06 M⁻¹ s⁻¹ | Kd ([2]; read-out: KD): 1.17 nM | Blocking of the binding of CD40 to CD40L [3]: comparable or slightly lower blocking activity relative to BM1 and BM2 | Blocking of the binding of human CD40 to BM2 [4]: able to block the binding of human CD40 to BM2
